The assay has as its target genome-edited CXCR4 fused to Nluc (human (endogenous in HEK293FT)) (UniProt P61073).
UniProt P61073, sequence (P61073 whole entry, the tested form may be a part): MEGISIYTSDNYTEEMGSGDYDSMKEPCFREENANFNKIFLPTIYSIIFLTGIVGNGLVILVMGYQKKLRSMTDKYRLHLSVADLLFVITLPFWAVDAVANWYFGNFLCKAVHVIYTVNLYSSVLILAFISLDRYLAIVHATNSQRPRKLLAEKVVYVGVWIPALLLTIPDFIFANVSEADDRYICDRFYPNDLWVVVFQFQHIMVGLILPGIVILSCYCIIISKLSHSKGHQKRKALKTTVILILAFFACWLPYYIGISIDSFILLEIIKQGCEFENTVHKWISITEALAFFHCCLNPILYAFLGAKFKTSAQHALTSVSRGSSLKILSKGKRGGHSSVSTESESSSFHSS

Substance “CXCL12 (from UniProt P48061 22-93) (ligand)” gave an inhibition of forskolin (5 µM)-mediated cAMP accumulation (HTRF) in HEK293FT cells expressing genome-edited CXCR4/Nluc of 8.6 pEC50.

(Values after paper PMC5466623.)
